This sample holds only a part of the variants without activity.
Experiments:
[1] = system: biotinyl-Phe-oxazolone; experiment: self-aminoacylation, catalytic enhancement (BFO) (fold over background); higher = more active; k-Seq, kA / k0A0; sequences stand for … in GGGAAUGGAUCCACAUCUACGAAUUC…UUCACUGCAGACUUGACGAAGCUG
In short: (§1)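 Working in 50 μL HEPES/NaCl/KCl/MgCl2/CaCl2 buffer with 5% acetonitrile at pH 6.9–7.0, mutagenized RNA pools (0.43 μM; 21-nt variable region) were reacted with 2–1250 μM of each biotinyl-aminoacyl-oxazolone for 90 minutes at room temperature. Streptavidin capture followed, with quantification by triplicate qPCR and Illumina sequencing. Catalytic enhancement is reported as median kA over the uncatalyzed rate, the low-activity peak of a bimodal Gaussian fit to the data.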

[2] = system: biotinyl-Ile-oxazolone; experiment: self-aminoacylation, catalytic enhancement (BIO) (fold over background); higher = more active; k-Seq, kA / k0A0; sequences stand for … in GGGAAUGGAUCCACAUCUACGAAUUC…UUCACUGCAGACUUGACGAAGCUG
In short: as §1

[3] = system: biotinyl-Met-oxazolone; experiment: self-aminoacylation, catalytic enhancement (BMO) (fold over background); higher = more active; k-Seq, kA / k0A0; sequences stand for … in GGGAAUGGAUCCACAUCUACGAAUUC…UUCACUGCAGACUUGACGAAGCUG
In short: as §1

[4] = system: biotinyl-Val-oxazolone; experiment: self-aminoacylation, catalytic enhancement (BVO) (fold over background); higher = more active; k-Seq, kA / k0A0; sequences stand for … in GGGAAUGGAUCCACAUCUACGAAUUC…UUCACUGCAGACUUGACGAAGCUG
In short: as §1

[5] = system: biotinyl-Leu-oxazolone; experiment: self-aminoacylation, catalytic enhancement (BLO) (fold over background); higher = more active; k-Seq, kA / k0A0; sequences stand for … in GGGAAUGGAUCCACAUCUACGAAUUC…UUCACUGCAGACUUGACGAAGCUG
In short: as §1

[6] = system: biotinyl-Trp-oxazolone; experiment: self-aminoacylation, catalytic enhancement (BWO) (fold over background); higher = more active; k-Seq, kA / k0A0; sequences stand for … in GGGAAUGGAUCCACAUCUACGAAUUC…UUCACUGCAGACUUGACGAAGCUG
In short: as §1

Sequence	self-aminoacylation [1]	self-aminoacylation [2]	self-aminoacylation [3]	self-aminoacylation [4]	self-aminoacylation [5]	self-aminoacylation [6]
AAGUGUGCCAAUAGUCGCAAG [Fam3.1 aminoacylation ribozyme variant]	2.66	2.38	1.97	1.61	1.78	1.66
AAGUGUGCUAAUAGUCCCAAG [Fam3.1 aminoacylation ribozyme variant]	3.77	1.34	1.17	1.28	1.24	2.02
AAGUGUGCUAAUAGUCGCAAA [Fam3.1 aminoacylation ribozyme variant]	2.76	1.79	2.07	1.41	1.52	1.88
AAGUGUGCUAAUAGUCGCACG [Fam3.1 aminoacylation ribozyme variant]	2.38	1.19	1.6	1.04	1.5	2.16
AAGUGUGCUAAUAGUCGUAAG [Fam3.1 aminoacylation ribozyme variant]	28	1.54	1.69	1.12	0.899	7.72
AAGUGUGCUAAUAGUCUCAAG [Fam3.1 aminoacylation ribozyme variant]	8.7	1.26	1.4	1.62	1.44	2.73
AAGUGUUCUAAUAGUCGCAAG [Fam3.1 aminoacylation ribozyme variant]	2.39	1.6	1.7	1.32	1.64	1.54
AAGUUAGCUAAUAAUCGCAAG [Fam3.1 aminoacylation ribozyme variant]	2	1.77	1.3	1.26	1.38	1.12
AAGUUAGCUAAUAGUCGCAAG [Fam3.1 aminoacylation ribozyme variant]	5.25	1.78	1.6	1.49	1.52	2.21
AAGUUAGCUAAUAGUCGCAGG [Fam3.1 aminoacylation ribozyme variant]	4.27	1.76	1.6	1.8	1.62	1.77
AAGUUAGCUAAUAGUCGCCAG [Fam3.1 aminoacylation ribozyme variant]	1.48	1.91	2.09	1.33	1.67	3.82
AAGUUAGCUAAUAGUCUCAAG [Fam3.1 aminoacylation ribozyme variant]	2.11	1.26	1.22	1.27	0.902	1.69
AAGUUCACUAAUAGUCGCAAG [Fam3.1 aminoacylation ribozyme variant]	2.72	1.96	1.37	1.86	1.8	2.23
AAGUUCGAUAAUAGUCGCAAG [Fam3.1 aminoacylation ribozyme variant]	2.51	1.44	1.39	1.28	1.55	1.33
AAGUUCGCAAAUAGUCGCAAG [Fam3.1 aminoacylation ribozyme variant]	3.4	1.84	2.13	1.44	2.86	1.42
AAGUUCGCUAACAGUCGCAAG [Fam3.1 aminoacylation ribozyme variant]	2.24	1.45	1.36	1.33	1.81	1.06
AAGUUCGCUAAUAAUCGCAAG [Fam3.1 aminoacylation ribozyme variant]	1.54	1.24	1.24	1.31	1.02	0.758
AAGUUCGCUAAUAGUGGCAAG [Fam3.1 aminoacylation ribozyme variant]	0.484	0.737	0.601	0.56	0.8	0.444
AAGUUCGCUAAUAUUCGCAAG [Fam3.1 aminoacylation ribozyme variant]	2.16	1.71	1.36	1.65	1.84	1.25
AAGUUCGCUAAUGGUCGCAAG [Fam3.1 aminoacylation ribozyme variant]	4.06	1.55	1.33	1.5	1.8	1.62
AAGUUCGCUCAUAGUCGCAAG [Fam3.1 aminoacylation ribozyme variant]	7.56	2.23	2.01	1.77	1.96	2.26
AAGUUGGAUAAUAGUCGCAAG [Fam3.1 aminoacylation ribozyme variant]	1.31	1.17	1.11	1.01	0.984	1.12
AAGUUGGCAAAUAGUCGCAAG [Fam3.1 aminoacylation ribozyme variant]	2.07	1.57	1.04	1.41	1.32	2.03
AAGUUGGCGAAUAGUCGCAAG [Fam3.1 aminoacylation ribozyme variant]	2.86	1.78	1.64	1.78	1.51	2.72
AAGUUGGCUAAUGGUCGCAAG [Fam3.1 aminoacylation ribozyme variant]	1.01	1.29	1.28	1.4	1.1	1.23
AAGUUUACUAAUAGUCACAAG [Fam3.1 aminoacylation ribozyme variant]	2.55	1.74	1.33	1.44	1.33	1.39

Sequence	self-aminoacylation [1]	self-aminoacylation [2]	self-aminoacylation [3]	self-aminoacylation [4]	self-aminoacylation [5]	self-aminoacylation [6]
AAGUUUACUAAUAGUCGCAAA [Fam3.1 aminoacylation ribozyme variant]	2.01	1.95	1.44	1.61	1.35	2.06
AAGUUUAUUAAUAGUCGCAAG [Fam3.1 aminoacylation ribozyme variant]	2.49	1.74	1.95	1.82	1.53	1.94
AAGUUUCCGAAUAGUCGCAAG [Fam3.1 aminoacylation ribozyme variant]	2.81	2.01	1.73	1.79	1.7	1.87
AAGUUUCCUAACAGUCGCAAG [Fam3.1 aminoacylation ribozyme variant]	1.26	1.23	0.884	1.03	0.963	0.58
AAGUUUCCUAAUAGUCGCAAA [Fam3.1 aminoacylation ribozyme variant]	3.59	1.99	1.74	1.43	1.99	1.96
AAGUUUCCUAAUAGUCGCAAG [Fam3.1 aminoacylation ribozyme variant]	2.47	1.57	1.34	1.36	1.42	1.62
AAGUUUCCUAAUCGUCGCAAG [Fam3.1 aminoacylation ribozyme variant]	1	0.879	0.973	0.893	0.896	0.618
AAGUUUCCUAAUUGUCGCAAG [Fam3.1 aminoacylation ribozyme variant]	0.96	1.47	1.14	1.38	1.88	0.994
AAGUUUCUUAAUAGUCGCAAG [Fam3.1 aminoacylation ribozyme variant]	3.21	1.95	1.56	1.69	1.92	1.66
AAGUUUGAUAAAAGUCGCAAG [Fam3.1 aminoacylation ribozyme variant]	2.15	1.51	1.64	1.22	1.13	1.46
AAGUUUGAUAAGAGUCGCAAG [Fam3.1 aminoacylation ribozyme variant]	1.67	1.62	1.06	1.12	1.24	1.33
AAGUUUGAUAAUACUCGCAAG [Fam3.1 aminoacylation ribozyme variant]	0.788	0.638	0.617	0.511	0.493	0.52
AAGUUUGAUAAUAGUCACAAG [Fam3.1 aminoacylation ribozyme variant]	0.914	0.649	0.716	0.742	0.547	0.877
AAGUUUGAUAAUAGUCCCAAG [Fam3.1 aminoacylation ribozyme variant]	0.838	0.613	0.47	0.515	0.423	0.489
AAGUUUGAUAAUAGUCGCAAA [Fam3.1 aminoacylation ribozyme variant]	1.22	1.18	1.08	0.975	0.997	1.04
AAGUUUGAUAAUAGUCGCAAC [Fam3.1 aminoacylation ribozyme variant]	1.27	0.926	0.773	0.809	0.718	0.736
AAGUUUGCAAAUAGCCGCAAG [Fam3.1 aminoacylation ribozyme variant]	0.662	1.05	0.737	1.06	0.933	1.07
AAGUUUGCAAAUAGUAGCAAG [Fam3.1 aminoacylation ribozyme variant]	1.62	1.27	1.03	0.939	1.07	0.923
AAGUUUGCAAAUAGUCGAAAG [Fam3.1 aminoacylation ribozyme variant]	1.58	0.956	0.974	0.824	0.913	1.04
AAGUUUGCAAAUAGUCUCAAG [Fam3.1 aminoacylation ribozyme variant]	0.972	0.987	1.12	0.772	0.747	0.81
AAGUUUGCAAAUUGUCGCAAG [Fam3.1 aminoacylation ribozyme variant]	0.968	1.26	1.47	1.19	1.57	1.53
AAGUUUGCACAUAGUCGCAAG [Fam3.1 aminoacylation ribozyme variant]	0.76	0.804	0.656	0.73	0.586	0.682
AAGUUUGCCAAUAGACGCAAG [Fam3.1 aminoacylation ribozyme variant]	0.674	0.591	0.625	0.664	0.562	0.482
AAGUUUGCCAAUAGUCGAAAG [Fam3.1 aminoacylation ribozyme variant]	0.727	1.05	1.44	1.02	0.911	1.5
AAGUUUGCCAAUAGUCGUAAG [Fam3.1 aminoacylation ribozyme variant]	1.38	0.916	0.873	0.732	0.724	1.51
